Substrate: OC[C@H]1O[C@H](O[C@H]2[C@H](O)[C@@H](O)[C@@H](O[C@H]3[C@H](O)[C@@H](O)C(O)O[C@@H]3CO)O[C@@H]2CO)[C@H](O)[C@@H](O)[C@@H]1O
Assay: purified protein, by the assay type
Settings: other: maltotriose hydrolysis at pH 4, enzyme 11 μg/ml or 0.18 μM

B1: Thielavia terrestris ATCC 20627 glucoamylase, wild type, recombinant (expressed in Aspergillus oryzae), SEQ ID NO:2 (Thermothielavioides terrestris NRRL 8126) (protein)
chain: PEASRVRREGEVVKRSVDSFIATESPIALSNLLCNIGSTGCHASGVASGIVVASPDKTNPDYWYTWTRDSALTFKCVVDTFTNSYDASLQAEIQNYIVAQAHLQGVSNPSGSLSDGSGLGEPKFNVDMSQFTGAWGRPQRDGPALRAIALIAYSKWLISNGYTSTASSIVWPVIKNDLAYVAQYWNNTGFDLWEEVSGSSFFTVANQHRALVEGAALATSLGTSCSACSAVAPQILCFLQSFWSPSSGYILANINENNGRSAKDANTLLGSIHTFDPAAGCDAATFQPCSDRALANHKVVTDAFRSIYSINSGIAEGSAVAVGRYPEDSYFGGNPWYLNTLAAAEQLYDALYVWKKQGSITVTSTSLAFFKDFSSSITPGTYSSSTSTYTTLYNAISAYADGYMNIVAQYAQTNGSLSEQFSKTNGEPLSAYDLTWSYAAFLTAAARRAGVVPPSWGAASANSVPAQCSATSVVGSYTSATATSFPPSQTPASSTSAGSSPASSTTATATACSTPTAVAVTFNERVTTQWGQTIKVVGDAAALGGWDTSKAVPLSAAGYTASDPLWSGTVDLPAGLAVQYKYINVAADGGVTWEADPNHSFTVPAACGTTAVTRDDTWQ
Km: 330 ± 70 µM | kcat: (5.5±0.5)×10^3 min^-1

Reference: US6309872A, “Polypeptides having glucoamylase activity and nucleic acids encoding same” (Novozymes Biotech, Inc, priority 2000, dated 2001)
